According to patent publication US20220306762A1 (CRYSTAL BIOSCIENCE, published 2022):
Where a chain is given by its changes, count along the chain named.

T1: His-tagged mouse CD38 (ACRO Biosystems CD8-M5223) (mouse, UniProt P56528 45-304)
T1 construct: bought protein; used for ELISA coating and as SPR analyte; also called Murine; not shown: His tag
T1 sequence (looked up): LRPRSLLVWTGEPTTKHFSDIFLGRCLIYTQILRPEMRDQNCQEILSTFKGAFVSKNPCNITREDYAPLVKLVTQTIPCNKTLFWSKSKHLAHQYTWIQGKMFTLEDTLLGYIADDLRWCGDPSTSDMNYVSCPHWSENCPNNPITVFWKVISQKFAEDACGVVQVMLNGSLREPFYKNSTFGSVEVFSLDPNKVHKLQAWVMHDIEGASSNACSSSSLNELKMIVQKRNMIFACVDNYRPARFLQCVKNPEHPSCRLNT

B1: 40769p2.1.E1 IgG (antibody, V domains shown)
VH: EVQLLESGGGLIQPGGSLRLSCTASGFDFSSYGMHWVRQAPGKGLEWVAIISDSGGTTYYGDSVKGRFTISRDNSKSTLYLQMNSLRAEDTALYYCASYIMDVWGQGTTVTVSS
VL: QSVLTQPPSASGTPEQRVTISCSGSNSNVGDNAVYWYQQLPGTAPKLLFYGTNRRPSGVPDRFSGSKSGTSASLAISGLQSEDEADYYCAAWDDSLNAWVFGGGTKLTVL
notes: IgG
B2: 40769p2.2.A5 IgG (antibody, V domains shown)
VH: B1 VH with A49G, S54T
VL: B1 VL with E15G
notes: IgG
B3: 40769p2.1.G4 IgG (antibody, V domains shown)
VH: EVQLLESGGGLVQPGGSLRLSCAASGFTFTSHDMNWVRQAPGKGLEWVSTITTGGNTYYADSVKGRFTISRDNSKNTLYLQMTSLRAEDTAVYYCTKHYSMDVWGQGTTVTVSS
VL: B1 VL with E15G, N26T, G30V, D31F, T52K, N53S, R54Q, S95T, A98G
notes: IgG
B4: 40769p2.1.H12 IgG (antibody, V domains shown)
VH: B1 VH with A49G, G61A, S77N, T108I
VL: B1 VL with E15G, D31V, A33S, F49I, T52S, N53G, G65V, S95G
notes: IgG
B5: 40769p2.1.F2 (antibody, V domains shown)
VH: EVQLLESGGGLVQPGGSLRLSCVASGFTFTNYEMNWVRQAPGKGLEWVSSISITGNYIYYADSVKGRFTISRDNSKNTLYLQMNDLRAEDTAVYYCANYKSYHGMDVWGQGTTVTVSS
VL: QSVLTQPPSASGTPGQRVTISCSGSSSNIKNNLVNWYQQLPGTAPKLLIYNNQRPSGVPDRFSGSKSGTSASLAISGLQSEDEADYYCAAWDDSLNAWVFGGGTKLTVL
notes: Human V regions from transgenic chicken, cloned as scFv-Fc; The variable domains can be found in the listing by the CDRs
B6: 40769p2.2.C8 (antibody, V domains shown)
VH: EVQLLESGGGLVPPGGSLRLSCAASGFTFTNAWMSWVRQAPGKGLEWVSTIRSKTDGGTPYSADSVKGRFTISRDDSKNTLYLQMNSLRAEDTAVYYCAKYDYNYMDVWGQGTTVTVSS
VL: QSVLTQPPSASGTPGQRVTISCSGTTSNIGRNYVHWYQQFPGTAPKLLIYRNSQRPSGVPDRFSGSKSGTSASLAISGLQSEDEADYYCAAWDDSLNGWLFGGGTKLTVL
notes: as for B5
B7: 40769p2.2.E7 (antibody, V domains shown)
VH: EVQLLESGGGLVQPGGSLRLSCTGFGFTFTDARMSWVRQAPGKGLEWVADISSYGDNTYYADSVKGRFTISRDNSANTLYVQMNSLRAEDTAVYYCAKRMEREVMTIKLDYHAMDVWGQGTTVTVSS
VL: QSVLTQTPSVSGTPGQRVTISCSGIFNIRNYVSWYQQLPGTAPKLLIFKDDQRLSGVPDRFSGSGSGTSASLAISGLQSEDEADYYCAAWDIFLNVWVFGGGTKLTVL
notes: as for B5

Each binder was assayed against T2, His-tagged human CD38 (ACRO Biosystems CD8-H5224) (human, UniProt P28907 43-300) (assay: SPR, IgG).
T2 construct: bought protein; used for ELISA coating and as SPR analyte; not shown: His tag

Row | Kd [nM] | Binder
1 | 25.6 | B1
2 | 18.8 | B2
3 | 35.5 | B3
4 | 160 | B4

The binders below were run against T3, His-tagged cynomolgus monkey CD38 (ACRO Biosystems, CD8-05223 [sic]) (cynomolgus monkey, UniProt Q5VAN0 43-301) (assay: SPR, IgG).
T3 construct: bought protein; used for ELISA coating and as SPR analyte; not shown: His tag

Row | Kd [nM] | Binder
5 | 261 | B1
6 | 221 | B2
7 | 73.8 | B3
8 | 316 | B4

Each binder was assayed against T1, His-tagged mouse CD38 (ACRO Biosystems …) (assay: SPR, IgG).

Row | Kd [nM] | Binder
9 | 1170 | B1
10 | 1160 | B2
11 | 106 | B3
12 | 21400 | B4

What follows are binders tested against T4, CD38 on Daudi target cells (UniProt P28907 1-300, limits assumed) (assay: cell-based or functional assay).

Row | Lowest Remaining Target % [%] | Max RLU [RLU] | PBMC ADCC EC50 [ng/mL] | Reporter cell ADCC EC50 [ng/mL] | Binder
13 | 57 | 1.72e+06 | 0.293 | 25.3 | B5
14 | 58 | 2.18e+06 | 0.167 | ~9.74 | B6
15 | 63 | 1.33e+06 | 0.0245 | ~13.2 | B7

Target: T4, CD38 on Daudi target cells
Assay: cell-based or functional assay
Remark: another data set of the same source

Row | ADCC EC50 [ng/mL] | Lowest Remaining Target % [%] | Max RLU [RLU] | PBMC ADCC EC50 [ng/mL] | Binder
16 | 25.3 | 57 | 1.72e+06 | 0.293 | B5
17 | ~9.74 | 58 | 2.18e+06 | 0.167 | B6
18 | ~13.2 | 63 | 1.33e+06 | 0.0245 | B7

Each binder was assayed against T5, His-tagged human CD38 (ACRO Biosystems cat #CD8-H5224) (human, UniProt P28907 43-300) (assay: SPR (Carterra LSA), antibody captured by anti-human Fc, His-tagged CD38 injected; IgG by the head of Table 5).
T5 construct: Bought His-tagged protein

Row | Kd [nM] | Binder
19 | 3.3 | B5
20 | 1.17 | B6
21 | 0.47 | B7

What follows are binders tested against T6, His-tagged cynomolgus monkey CD38 (ACRO Biosystems cat # CD8-05223 [sic]) (cynomolgus monkey, UniProt Q5VAN0 43-301) in the same assay as above.
T6 construct: Bought His-tagged protein; also called cynomolgus CD38

Row | Kd [nM] | Binder
22 | 7.05 | B5
23 | 3.64 | B6
24 | 1.99 | B7
